Biological target: T1, Indicator molecule of Example 3 (synthetic peptide with MMP-9 sequence, HNE sequence, DNP, fluorescent label and terminal biotin via PEG)
T1 chain: GPQGIFGQGAAPVA

B1: human neutrophil elastase (HNE) (Lee biotech, 342-40) (protein)
chain: IVGGRRARPHAWPFMVSLQLRGGHFCGATLIAPNFVMSAAHCVANVNVRAVRVVLGAHNLSRREPTRQVFAVQRIFENGYDPVNLLNDIVILQLNGSATINANVQVAQLPAQGRRLGNGVQCLAMGWGLLGRNRGIASVLQELNVTVVTSLCRRSNVCTLVRGRQAGVCFGDSGSPLVCNGLIHGIASFVRGGCASGLYPDAFAPVAQFVNWIDSIIQ
detectable limit of the lateral flow cleavage assay: approximately 62.5-125 ng/ml
